B1: CHO-CNTO 860 WT (antibody, human IgG1, kappa)
heavy: not shown
light: DIQMTQSPSSLSASVGDRVTITCKASQDIRKYLNWYQQKPGKAPKLLIYYATSLADGVPSRFSGSGSGTDYTFTISSLQPEDIATYYCLQHGESPYTFGQGTKLEITRTVAAPSVFIFPPSDEQLKSGTASVVCLLNNFYPREAKVQWKVDNALQSGNSQESVTEQDSKDSTYSLSSTLTLSKADYEKHKVYACEVTHQGLSSPVTKSFNRGEC
modifications: N-linked glycan at heavy chain Asn297 (CHO-type, highly fucosylated); not carried by the letters
notes: Anti-human tissue factor human IgG1/kappa; transiently expressed in CHO cells (plasmids p4145/p4146; CHO Abs typically 95% fucosylated), purified by protein A; also called CNTO 860 WT from CHO cells; WT (CHO cell-derived); copies: 2 + 2
B2: YB2/0-CNTO 860 WT (antibody, human IgG1, kappa)
heavy: not shown
light: B1 light
modifications: Heavy chain N297 carries the YB2/0-type N-linked glycan (40-60% fucosylated); not carried by the letters.
notes: Anti-human tissue factor human IgG1/kappa; stably expressed in rat YB2/0 cells (p2401/p2402; YB2/0 Abs typically 40-60% fucosylated), purified by protein A; also called WT (YB2/0 cell-derived); WT from YB2/0 cells; copies: 2 + 2
B3: CHO-CNTO 860 I332E/A330I (antibody, human IgG1, kappa)
heavy: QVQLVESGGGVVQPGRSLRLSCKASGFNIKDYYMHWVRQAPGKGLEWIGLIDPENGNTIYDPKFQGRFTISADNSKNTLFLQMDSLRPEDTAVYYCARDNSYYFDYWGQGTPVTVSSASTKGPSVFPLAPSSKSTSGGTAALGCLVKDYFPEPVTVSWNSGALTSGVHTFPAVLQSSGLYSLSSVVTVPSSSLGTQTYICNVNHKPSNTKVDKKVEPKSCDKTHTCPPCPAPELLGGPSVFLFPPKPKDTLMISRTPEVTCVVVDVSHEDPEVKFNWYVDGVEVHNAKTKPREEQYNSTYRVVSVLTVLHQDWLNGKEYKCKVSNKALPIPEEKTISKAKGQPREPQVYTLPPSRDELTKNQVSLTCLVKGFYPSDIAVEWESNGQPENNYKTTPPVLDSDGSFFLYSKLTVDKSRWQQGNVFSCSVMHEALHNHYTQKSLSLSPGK
light: B1 light
modifications: Heavy chain N297 carries the CHO-type N-linked glycan (about 95% fucosylated); not carried by the letters.
notes: IgG1/kappa Fc variant; transiently expressed in CHO cells (p4185/p4146); EU numbering; also called A330I/I332E (CHO cell-derived); A330I/I332E variant from CHO cells; copies: 2 + 2
B4: CHO-CNTO 860 A330I (antibody, IgG1)
heavy: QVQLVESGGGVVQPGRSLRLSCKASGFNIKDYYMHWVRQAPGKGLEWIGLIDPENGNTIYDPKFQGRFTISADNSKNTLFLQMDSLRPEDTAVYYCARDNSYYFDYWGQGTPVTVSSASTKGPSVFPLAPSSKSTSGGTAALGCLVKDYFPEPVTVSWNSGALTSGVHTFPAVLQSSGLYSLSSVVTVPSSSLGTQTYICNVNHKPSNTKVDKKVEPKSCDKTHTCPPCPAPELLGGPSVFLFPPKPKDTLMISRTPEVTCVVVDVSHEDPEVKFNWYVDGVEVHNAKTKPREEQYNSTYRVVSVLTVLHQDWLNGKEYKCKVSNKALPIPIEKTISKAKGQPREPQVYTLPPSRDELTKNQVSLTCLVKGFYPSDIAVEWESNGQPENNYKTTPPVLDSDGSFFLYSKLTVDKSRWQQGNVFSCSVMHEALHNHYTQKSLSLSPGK
light: B1 light
modifications: N-linked glycan at Asn297 of the heavy chain (CHO-type, highly fucosylated); not carried by the letters
notes: IgG1/kappa Fc variant; EU numbering; also called A330I (CHO cell-derived); copies: 2 + 2
B5: YB2/0-CNTO 860 V264I/I332E (antibody, human IgG1, kappa)
heavy: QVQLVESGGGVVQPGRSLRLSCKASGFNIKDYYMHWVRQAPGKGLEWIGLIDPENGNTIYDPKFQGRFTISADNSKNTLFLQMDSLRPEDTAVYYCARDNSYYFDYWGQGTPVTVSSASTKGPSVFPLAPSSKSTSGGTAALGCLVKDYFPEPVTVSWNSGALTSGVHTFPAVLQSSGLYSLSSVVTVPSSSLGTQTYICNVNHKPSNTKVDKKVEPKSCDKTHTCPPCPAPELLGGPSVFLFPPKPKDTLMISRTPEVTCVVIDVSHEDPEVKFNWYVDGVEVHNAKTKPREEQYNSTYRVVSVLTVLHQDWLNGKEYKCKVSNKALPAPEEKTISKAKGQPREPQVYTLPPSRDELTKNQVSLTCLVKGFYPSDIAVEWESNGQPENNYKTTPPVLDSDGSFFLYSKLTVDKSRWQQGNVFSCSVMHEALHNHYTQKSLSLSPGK
light: B1 light
modifications: N-linked glycan at heavy chain Asn297 (YB2/0-type, low fucose); not carried by the letters
notes: IgG1/kappa Fc variant; stably expressed in YB2/0 cells (p4180/p2402); EU numbering; also called V264I/I332E (YB2/0 cell-derived); copies: 2 + 2
B6: YB2/0-CNTO 860 I332E (antibody, human IgG1, kappa)
heavy: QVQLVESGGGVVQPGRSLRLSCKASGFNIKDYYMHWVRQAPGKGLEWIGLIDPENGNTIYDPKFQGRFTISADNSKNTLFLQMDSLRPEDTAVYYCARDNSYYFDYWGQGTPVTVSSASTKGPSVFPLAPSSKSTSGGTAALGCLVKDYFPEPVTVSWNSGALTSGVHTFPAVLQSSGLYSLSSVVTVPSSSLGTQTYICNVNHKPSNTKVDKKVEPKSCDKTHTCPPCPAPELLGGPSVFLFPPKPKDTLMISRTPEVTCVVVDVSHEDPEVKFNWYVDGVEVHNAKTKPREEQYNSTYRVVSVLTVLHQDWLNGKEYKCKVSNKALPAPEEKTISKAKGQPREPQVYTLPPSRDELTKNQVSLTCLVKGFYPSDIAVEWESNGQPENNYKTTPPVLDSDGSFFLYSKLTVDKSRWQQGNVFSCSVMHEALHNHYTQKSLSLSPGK
light: B1 light
modifications: Heavy chain N297 carries the YB2/0-type low-fucose N-linked glycan; not carried by the letters.
notes: IgG1/kappa Fc variant; stably expressed in YB2/0 cells (p4148/p2402), low-fucose glycan; EU numbering; also called I332E (YB2/0 cell-derived); I332E from YB2/0 cells; copies: 2 + 2
B7: YB2/0-CNTO 860 A330Y (antibody, human IgG1, kappa)
heavy: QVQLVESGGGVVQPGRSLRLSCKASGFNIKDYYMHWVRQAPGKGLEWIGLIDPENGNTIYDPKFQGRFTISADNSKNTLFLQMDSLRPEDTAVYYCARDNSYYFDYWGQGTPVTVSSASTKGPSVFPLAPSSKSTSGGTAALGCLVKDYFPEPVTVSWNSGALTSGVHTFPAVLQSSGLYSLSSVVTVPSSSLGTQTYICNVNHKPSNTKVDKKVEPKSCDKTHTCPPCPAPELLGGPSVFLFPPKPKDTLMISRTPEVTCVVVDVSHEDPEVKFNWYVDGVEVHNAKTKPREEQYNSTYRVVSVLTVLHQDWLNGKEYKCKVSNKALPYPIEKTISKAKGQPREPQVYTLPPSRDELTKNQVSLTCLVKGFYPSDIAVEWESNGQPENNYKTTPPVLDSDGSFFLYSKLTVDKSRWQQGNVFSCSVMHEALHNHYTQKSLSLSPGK
light: B1 light
modifications: N-linked glycan at heavy chain Asn297 (YB2/0-type, low fucose); not carried by the letters
notes: IgG1/kappa Fc variant; stably expressed in YB2/0 cells (p4176/p2402); EU numbering; also called A330Y (YB2/0 cell-derived); copies: 2 + 2
B8: CHO-CNTO 860 I332E/S239D (antibody, human IgG1, kappa)
heavy: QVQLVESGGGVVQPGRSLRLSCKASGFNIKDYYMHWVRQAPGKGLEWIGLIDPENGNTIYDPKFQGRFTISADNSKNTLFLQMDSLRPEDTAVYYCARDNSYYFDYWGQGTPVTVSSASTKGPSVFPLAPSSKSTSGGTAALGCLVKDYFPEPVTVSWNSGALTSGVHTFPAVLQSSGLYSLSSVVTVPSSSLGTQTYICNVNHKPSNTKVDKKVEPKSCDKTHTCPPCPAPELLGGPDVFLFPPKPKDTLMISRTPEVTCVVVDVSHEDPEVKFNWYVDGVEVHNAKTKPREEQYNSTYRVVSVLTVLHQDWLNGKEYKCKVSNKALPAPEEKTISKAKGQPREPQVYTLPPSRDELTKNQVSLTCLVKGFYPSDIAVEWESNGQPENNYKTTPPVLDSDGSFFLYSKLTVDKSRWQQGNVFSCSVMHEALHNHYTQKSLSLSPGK
light: B1 light
modifications: Heavy chain N297 carries the CHO-type N-linked glycan (about 95% fucosylated); not carried by the letters.
notes: IgG1/kappa Fc variant; transiently expressed in CHO cells (p4186/p4146); EU numbering; also called S239D/I332E (CHO cell-derived); copies: 2 + 2
B9: YB2/0-CNTO 860 S239D/I332E (antibody, human IgG1, kappa)
heavy: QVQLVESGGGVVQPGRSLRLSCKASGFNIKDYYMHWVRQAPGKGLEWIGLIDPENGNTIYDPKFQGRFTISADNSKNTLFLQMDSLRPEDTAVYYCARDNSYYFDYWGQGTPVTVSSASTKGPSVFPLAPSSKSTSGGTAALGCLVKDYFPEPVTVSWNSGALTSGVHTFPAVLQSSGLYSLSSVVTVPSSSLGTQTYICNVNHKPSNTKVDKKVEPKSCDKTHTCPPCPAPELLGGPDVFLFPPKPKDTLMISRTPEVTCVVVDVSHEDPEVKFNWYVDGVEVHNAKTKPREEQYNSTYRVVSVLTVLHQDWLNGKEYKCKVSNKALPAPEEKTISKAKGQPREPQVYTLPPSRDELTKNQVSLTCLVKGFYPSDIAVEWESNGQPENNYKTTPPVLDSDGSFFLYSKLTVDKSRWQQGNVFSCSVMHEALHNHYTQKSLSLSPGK
light: B1 light
modifications: N-linked glycan at heavy chain Asn297 (YB2/0-type, low fucose); not carried by the letters
notes: IgG1/kappa Fc variant; stably expressed in YB2/0 cells (p4179/p2402); EU numbering; also called S239D/I332E (YB2/0 cell-derived); copies: 2 + 2
B10: CHO-CNTO 860 A330Y (antibody, human IgG1, kappa)
heavy: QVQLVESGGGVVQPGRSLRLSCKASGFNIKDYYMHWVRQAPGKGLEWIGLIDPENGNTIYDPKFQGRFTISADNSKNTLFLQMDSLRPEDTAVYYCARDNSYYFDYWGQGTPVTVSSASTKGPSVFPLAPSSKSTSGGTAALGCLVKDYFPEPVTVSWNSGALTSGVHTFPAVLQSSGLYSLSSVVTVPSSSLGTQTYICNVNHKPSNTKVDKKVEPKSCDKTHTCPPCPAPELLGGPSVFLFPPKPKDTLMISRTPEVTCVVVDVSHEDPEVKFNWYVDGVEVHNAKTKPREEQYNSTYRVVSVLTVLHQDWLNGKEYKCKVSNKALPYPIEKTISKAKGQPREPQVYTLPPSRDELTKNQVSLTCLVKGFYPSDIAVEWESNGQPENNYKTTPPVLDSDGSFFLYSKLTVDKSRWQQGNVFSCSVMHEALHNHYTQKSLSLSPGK
light: B1 light
modifications: N-linked glycan at Asn297 of the heavy chain (CHO-type, highly fucosylated); not carried by the letters
notes: IgG1/kappa Fc variant; transiently expressed in CHO cells (p4183/p4146); EU numbering; also called A330Y (CHO cell-derived); copies: 2 + 2
B11: YB2/0-CNTO 860 A330I (antibody, IgG1)
heavy: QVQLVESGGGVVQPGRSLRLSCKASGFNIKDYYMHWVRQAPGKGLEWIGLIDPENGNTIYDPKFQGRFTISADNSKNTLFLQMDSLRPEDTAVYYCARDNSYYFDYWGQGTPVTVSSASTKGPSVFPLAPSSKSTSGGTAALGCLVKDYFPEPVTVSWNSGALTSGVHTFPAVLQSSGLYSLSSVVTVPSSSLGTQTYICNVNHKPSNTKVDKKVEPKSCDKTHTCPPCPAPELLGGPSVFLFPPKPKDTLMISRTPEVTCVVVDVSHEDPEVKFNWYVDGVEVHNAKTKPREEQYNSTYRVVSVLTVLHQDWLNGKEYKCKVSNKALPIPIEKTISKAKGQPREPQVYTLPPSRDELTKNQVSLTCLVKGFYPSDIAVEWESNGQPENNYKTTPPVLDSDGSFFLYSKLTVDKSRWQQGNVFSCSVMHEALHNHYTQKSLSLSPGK
light: B1 light
modifications: N-linked glycan at heavy chain Asn297 (YB2/0-type, low fucose); not carried by the letters
notes: IgG1/kappa Fc variant; stably expressed in YB2/0 cells (p4177/p2402); EU numbering; also called A330I (YB2/0 cell-derived); A330I mutant expressed in YB2/0 cells; copies: 2 + 2
B12: CHO-CNTO 860 I332E (antibody)
heavy: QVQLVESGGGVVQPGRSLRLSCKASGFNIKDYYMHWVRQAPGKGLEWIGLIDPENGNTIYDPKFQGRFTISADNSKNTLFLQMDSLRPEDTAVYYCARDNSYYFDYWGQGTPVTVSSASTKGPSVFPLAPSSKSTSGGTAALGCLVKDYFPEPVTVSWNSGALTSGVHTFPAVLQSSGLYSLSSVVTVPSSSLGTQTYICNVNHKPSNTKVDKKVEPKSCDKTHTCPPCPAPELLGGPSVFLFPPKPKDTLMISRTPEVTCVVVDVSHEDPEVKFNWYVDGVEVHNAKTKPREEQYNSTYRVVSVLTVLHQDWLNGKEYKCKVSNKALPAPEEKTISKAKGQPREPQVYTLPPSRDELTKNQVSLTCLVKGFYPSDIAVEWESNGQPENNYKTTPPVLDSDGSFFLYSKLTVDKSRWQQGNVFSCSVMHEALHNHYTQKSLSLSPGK
light: B1 light
modifications: N-linked glycan at Asn297 of the heavy chain (CHO-type, highly fucosylated); not carried by the letters
notes: IgG1/kappa Fc variant; transiently expressed in CHO cells (p4157/p4146); also called I332E (CHO cell-derived); I332E from CHO cells; copies: 2 + 2
B13: YB2/0-CNTO 860 A330I/I332E (antibody, human IgG1, kappa)
heavy: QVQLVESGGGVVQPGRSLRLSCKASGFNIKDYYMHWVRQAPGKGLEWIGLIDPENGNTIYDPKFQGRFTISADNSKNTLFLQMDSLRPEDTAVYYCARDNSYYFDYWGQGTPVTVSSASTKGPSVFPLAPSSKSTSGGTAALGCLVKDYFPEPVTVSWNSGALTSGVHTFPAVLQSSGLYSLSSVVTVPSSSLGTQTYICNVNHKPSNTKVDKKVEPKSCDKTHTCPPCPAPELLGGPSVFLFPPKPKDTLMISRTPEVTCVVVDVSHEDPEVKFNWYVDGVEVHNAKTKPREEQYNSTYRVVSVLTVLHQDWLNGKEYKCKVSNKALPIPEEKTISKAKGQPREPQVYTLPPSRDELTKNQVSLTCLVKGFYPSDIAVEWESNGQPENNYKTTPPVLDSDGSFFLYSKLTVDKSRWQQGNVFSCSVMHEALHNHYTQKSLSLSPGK
light: B1 light
modifications: N-linked glycan at heavy chain Asn297 (YB2/0-type, low fucose); not carried by the letters
notes: IgG1/kappa Fc variant; stably expressed in YB2/0 cells (p4178/p2402); EU numbering; also called A330I/I332E (YB2/0 cell-derived); A330I/I332E from YB2/0 cells; copies: 2 + 2

Columns and labels:
[1] = molecular target: T1, recombinant human His-tagged FcγRIIa (R&D Systems #1330-CD-050) (human, UniProt P12318 36-218, limits assumed); experiment: AlphaScreen, His-tagged FcγRIIa on nickel acceptor beads
T1 construct: Bought; also called CD32a; recombinant, soluble, human FcγRIIa
T1 sequence (looked up): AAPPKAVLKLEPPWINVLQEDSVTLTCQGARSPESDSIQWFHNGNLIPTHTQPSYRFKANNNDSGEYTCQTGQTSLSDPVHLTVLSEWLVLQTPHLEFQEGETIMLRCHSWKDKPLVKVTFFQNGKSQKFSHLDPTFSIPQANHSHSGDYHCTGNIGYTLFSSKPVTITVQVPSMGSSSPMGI
Method: (§1) FcγRIIa (CD32a) AlphaScreen—Nickel acceptor beads (Perkin Elmer #6760619C) were diluted 1:50 in assay buffer (PBS, pH 7.4, 4 mg/ml BSA, 0.01% Tween-20), and 27.5 μl were added to each well of a Nunc V-bottom polypropylene plate (VWR # 62409-108) (Powers G., Notebook 9006, pp. 169-175, 182-185). A 2.0 μg/ml solution of recombinant human His-tagged FcγRIIa (R&D Systems #1330-CD-050) was prepared in assay buffer and 27.5 μl added to each well of a separate Nunc V bottom polypropylene plate. Titrations of test Abs were prepared in the Nunc V bottom polypropylene plate starting at 30 μg/ml. A 2 μg/ml solution of biotinylated goat F(ab′)₂ anti-human IgG F(ab′)₂ (Jackson Immunoresearch #109-066-097) was prepared in assay buffer and 27.5 μl added to each well of another Nunc V bottom polypropylene plate. A 1:50 dilution of streptavidin donor beads (PerkinElmer # 6760002) was prepared in assay buffer and 27.5 μl added to each well of another Nunc V bottom polypropylene plate. A volume of 5 μl of each reagent was added to the corresponding quadrants of a low-volume, non-binding white 384-well plate (Corning # 3673) in the following order: acceptor beads, FcγRIIa, test Ab, biotinylated anti-human IgG F(ab′)₂, and streptavidin donor beads. The plates were incubated for 30 minutes with shaking and the O.D.s determined using an Envision plate reader.

[2] = molecular target: T2, recombinant human FcγRIIb (R&D Systems #1875-CD-050) (human, UniProt P31994 46-217, limits assumed); experiment: AlphaScreen, FcγRIIb on nickel acceptor beads
T2 construct: Bought; also called CD32b; recombinant, soluble, human FcγRIIb
T2 sequence (looked up): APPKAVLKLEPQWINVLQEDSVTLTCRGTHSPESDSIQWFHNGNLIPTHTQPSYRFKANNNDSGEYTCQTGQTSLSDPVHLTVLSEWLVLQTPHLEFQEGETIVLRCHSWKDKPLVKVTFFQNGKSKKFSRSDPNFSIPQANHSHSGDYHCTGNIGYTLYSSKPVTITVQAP
Method: as §1
FcγRIIb (CD32b) AlphaScreen—The assay was performed as described above for FcγRIIa except that FcγRIIa was replaced with FcγRIIb (R&D Systems #1875-CD-050).

[3] = molecular target: T3, recombinant human His-tagged FcγRIIIa (extracellular domain made at Centocor) (human, UniProt P08637 17-208); experiment: ELISA, His-tagged FcγRIIIa captured on HisGrab plate
T3 construct: extracellular domain; also called CD16a; recombinant, soluble, human FcγRIIIa
T3 sequence (P08637 17-208): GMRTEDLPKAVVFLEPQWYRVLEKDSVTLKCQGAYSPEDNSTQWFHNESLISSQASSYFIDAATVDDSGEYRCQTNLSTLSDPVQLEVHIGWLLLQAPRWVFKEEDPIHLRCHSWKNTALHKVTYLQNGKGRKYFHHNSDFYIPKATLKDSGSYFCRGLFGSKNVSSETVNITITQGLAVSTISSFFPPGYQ
Method: FcγRIIIa (CD16a) ELISA—A human FcγRIIIa binding assay was done in ELISA format similar to the assay for FcγRI above. 50 μl of a 2 μg/ml solution of recombinant human His-tagged FcγRIIIa (extracellular domain made at Centocor) in ELISA buffer (PBS, 4 mg/ml BSA, 0.01% Tween-20) was added to each well of HisGrab 96 well plates (Pierce #15142) (Powers G., Notebook 10378, 19-23). The plate was incubated for 3 hours at room temp. The plates were blocked with 200 μl of Starting Block (Pierce #15142) for 30 min, and then washed 3× with 300 μl of wash buffer (PBS, 0.01% Tween-20) on a plate washer. Serial dilutions of the CNTO 860 test samples were made in Starting Block buffer and 50 μl per well of each titration were added in duplicate to the FcγRIIIa-coated plates. The plates were incubated for 1 hour. The plates were washed 3× with 300 μl of wash buffer on a plate washer. 50 μl of a 1:10,000 dilution of HRP-labeled goat F(ab′)2 anti-human IgG F(ab′)2 (Jackson Immunoresearch # 109-036-097) in Starting Block buffer was added to each well. The plates were incubated for 30 minutes. The plates were washed 3× with 300 μl of wash buffer on the plate washer. 50 μl per well TMB substrate (RDI #RDI-TMBSU-1L) was added to each well and developed for 3-5 minutes. The reaction was stopped by adding 100 μl […] sulfuric acid. The plates were read at OD450 on an Envision plate reader. Antibody concentration vs OD450 values were graphed for each CNTO 860 variant and the antibody concentration needed to achieve an OD450 reading of 0.14 established by interpolation within each data curve.

[4] = molecular target: FcγRIIIa on NK cells of human PBMC (human, UniProt P08637 17-254); experiment: cell-based or functional assay
FcγRIIIa on NK cells of human PBMC, sequence (P08637 17-254): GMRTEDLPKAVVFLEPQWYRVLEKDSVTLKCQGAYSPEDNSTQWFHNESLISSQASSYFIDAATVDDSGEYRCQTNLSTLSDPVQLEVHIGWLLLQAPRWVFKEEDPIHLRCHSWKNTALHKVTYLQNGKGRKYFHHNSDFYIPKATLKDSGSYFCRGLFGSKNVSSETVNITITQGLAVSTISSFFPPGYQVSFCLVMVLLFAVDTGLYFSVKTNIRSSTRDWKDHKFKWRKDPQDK

Binder	concentration (ng/ml) required for a set O.D. signal [1]	concentration (ng/ml) required for an O.D. value of 200,000 [2]	concentration (ng/ml) required for an O.D. value of 0.14 [3]	EC25 (ng/ml), ADCC of HCT116 cells by human PBMC [4]
B1	97 ng/mL	165 ng/mL	4500 ng/mL	
B2	63 ng/mL	120 ng/mL	1500 ng/mL	
B3	900 ng/mL	4500 ng/mL	520 ng/mL	1.2 ng/mL
B4	2250 ng/mL	75000 ng/mL	19000 ng/mL	
B5	90 ng/mL	60 ng/mL	165 ng/mL	0.12 ng/mL
B6	60 ng/mL	75 ng/mL	165 ng/mL	0.3 ng/mL
B7	78 ng/mL	165 ng/mL	340 ng/mL	0.4 ng/mL
B8	75 ng/mL	27 ng/mL	600 ng/mL	0.7 ng/mL
B9	60 ng/mL	20 ng/mL	120 ng/mL	0.2 ng/mL
B10	142 ng/mL	280 ng/mL	3300 ng/mL	4 ng/mL
B11	450 ng/mL	37000 ng/mL	1200 ng/mL	0.7 ng/mL
B12	76 ng/mL	105 ng/mL	750 ng/mL	0.75 ng/mL
B13	1500 ng/mL	10500 ng/mL	240 ng/mL	0.15 ng/mL
